The values below come from paper PMC3921932.

The assay concerns the target recombinant manganese superoxide dismutase (MnSOD) from Lactococcus lactis M4 (Lactococcus lactis M4) (UniProt P0A4J2). In words: SEC; Superose 12 HR 16/70 packed column, 20 mM phosphate buffer, 0.15 M NaCl, pH 7.0, 0.75 mL/min; calibrated with aprotinin, cytochrome c, carbonic anhydrase and BSA; estimated mass 63 kDa against 55.4 kDa theoretical for a dimer.

Usually stoichiometry N stands for the number of molecules, sites or subunits per partner or assembly. As to “recombinant manganese superoxide dismutase (MnSOD) from Lactococcus lactis M4 (from UniProt P0A4J2 1-206) (enzyme)”, the stoichiometry N was 2.
